Results as given in patent US20240327847, “COMPOSITIONS AND METHODS FOR RNA AFFINITY” (SANOFI, published 2024).

Target: streptavidin (UniProt P22629 P22629:25-183)
Assay: pulldown; recovery similar to tRNA scaffold control, described as non-specific under these conditions
Settings: tags: immobilised on sepharose beads (streptavidin sepharose); chain copies: 4 (inferred)
Procedure: Subsequently, the beads were resuspended in 20 μL of binding buffer with RNasin Ribonuclease Inhibitor (3 μL/100 units) and then incubated on ice for 15 minutes. (2) Preparation of RNA aptamers. 2.5 μg of the RNA aptamers were resuspended in 10 μL binding buffer. Refolding of the RNA aptamers was performed by heating at 56° C. for 5 min, 37° C. for 10 min, followed by a room temperature incubation for 5 minutes to refold aptamer structure. At the end of the RNA aptamer preparation procedure, 2 μL of the random aptamer and the Sim aptamer in a 1:2 mix with binding buffer were collected as a control for total RNA aptamer yield (input control). (3) Incubation conditions. 10 μL of refolded aptamer containing mRNA (2.5 μg) aptamers were added to the beads and incubated at 4° C. for 2 hours on a rotator. Subsequently, beads were washed 3 times with 100 μL of binding buffer and kept on ice for the remainder of the procedure to maintain aptamer secondary structure. (4) Elution of RNA aptamers from beads. Elution was performed with 250 μL phenol-based reagent in the following steps. […] RNA concentration following streptavidin affinity purification was quantified on a Nanodrop using parameters set by the manufacturer's specifications.
Affinity binding of the Sm, tRNA, tRNA-Sm, and 2× tRNA Sm aptamer tags were analyzed. […]

Chain of streptavidin (P22629 25-183, one chain of several): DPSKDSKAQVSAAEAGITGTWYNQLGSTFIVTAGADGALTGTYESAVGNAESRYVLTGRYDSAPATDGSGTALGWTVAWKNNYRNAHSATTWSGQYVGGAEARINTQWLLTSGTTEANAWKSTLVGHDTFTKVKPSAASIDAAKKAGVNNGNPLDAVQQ

Question: Does CGACCAGAAUCAUGCAAGUGCGUAAGAUAGUCGCGGG (ssRNA) [Sm aptamer (pAM20)] bind?
Answer: Result: no binding
